Source: patent publication US20180118816A1 (IGM BIOSCIENCES, published 2018)

B1: HIV02 IgG (HIV02G) (antibody, V domains shown)
VH: QVQLVQSGGQMKKPGESMRISCQASGYEFIDCTLNWVRLAPGRRPEWMGWLKPRGGAVNYARPLQGRVTMTRDVYSDTAFLELRSLTADDTAVYYCTRGKNCDYNWDFEHWGRGTPVTVSS
VL: EIVLTQSPGTLSLSPGETAIISCRTSQYGSLAWYQQRPGQAPRLVIYSGSTRAAGIPDRFSGSRWGPDYNLTIRNLESGDFGLYYCQQYEFFGQGTKVQVDI
notes: also called the IgG
B2: HIV02 IgM+J (HIV02M+J) (antibody)
heavy: QVQLVQSGGQMKKPGESMRISCQASGYEFIDCTLNWVRLAPGRRPEWMGWLKPRGGAVNYARPLQGRVTMTRDVYSDTAFLELRSLTADDTAVYYCTRGKNCDYNWDFEHWGRGTPVTVSSGSASAPTLFPLVSCENSPSDTSSVAVGCLAQDFLPDSITFSWKYKNNSDISSTRGFPSVLRGGKYAATSQVLLPSKDVMQGTDEHVVCKVQHPNGNKEKNVPLPVIAELPPKVSVFVPPRDGFFGNPRKSKLICQATGFSPRQIQVSWLREGKQVGSGVTTDQVQAEAKESGPTTYKVTSTLTIKESDWLSQSMFTCRVDHRGLTFQQNASSMCVPDQDTAIRVFAIPPSFASIFLTKSTKLTCLVTDLTTYDSVTISWTRQNGEAVKTHTNISESHPNATFSAVGEASICEDDWNSGERFTCTVTHTDLPSPLKQTISRPKGVALHRPDVYLLPPAREQLNLRESATITCLVTGFSPADVFVQWMQRGQPLSPEKYVTSAPMPEPQAPGRYFAHSILTVSEEEWNTGETYTCVVAHEALPNRVTERTVDKSTGKPTLYNVSLVMSDTAGTCY
light: EIVLTQSPGTLSLSPGETAIISCRTSQYGSLAWYQQRPGQAPRLVIYSGSTRAAGIPDRFSGSRWGPDYNLTIRNLESGDFGLYYCQQYEFFGQGTKVQVDIKRTVAAPSVFIFPPSDEQLKSGTASVVCLLNNFYPREAKVQWKVDNALQSGNSQESVTEQDSKDSTYSLSSTLTLSKADYEKHKVYACEVTHQGLSSPVTKSFNRGEC
chain: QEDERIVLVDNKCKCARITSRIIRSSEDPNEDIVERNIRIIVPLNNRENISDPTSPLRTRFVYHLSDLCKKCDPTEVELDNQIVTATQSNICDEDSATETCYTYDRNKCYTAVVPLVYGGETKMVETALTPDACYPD
notes: also called the IgM+J

Tests used:
[1] = biological target: T1, HIV gp120 antigen (strain HXB2, Immune Tech, cat #IT-001-0022p-PBS) (HIV, strain HXB2, UniProt P04578 33-511); assay: ELISA, gp120 coated at 1 µg/mL, anti-human kappa-HRP detection; value given to the IgG by the sense of the sentence, not by its word order
T1 construct: domain: gp120; Bought protein coated on ELISA plates; also called gp120 HBX2

[2] = biological target: T1, HIV gp120 antigen (strain HXB2, Immune …); assay: ELISA, gp120 coated at 1 µg/mL
[3] = biological target: T1, HIV gp120 antigen (strain HXB2, Immune …); assay: ELISA, interpolated EC10 values; gp120 coated at 0.1 µg/mL
[4] = biological target: T1, HIV gp120 antigen (strain HXB2, Immune …); assay: ELISA, interpolated EC10 values; gp120 coating 0.1 µg/mL end of the series
[5] = biological target: T1, HIV gp120 antigen (strain HXB2, Immune …); assay: ELISA, gp120 coated at 1 µg/mL, anti-human kappa-HRP detection; value given to the IgM+J by the sense of the sentence, not by its word order
[6] = biological target: T1, HIV gp120 antigen (strain HXB2, Immune …); assay: ELISA, interpolated EC10 values; gp120 coating 1.0 µg/mL end of the series

Binder	EC50 [1]	fold better binding than HIV02G, on a molar basis [2]	fold difference in EC50 against HIV02G, by weight [2]	fold better binding than the IgG (HIV02G), on a molar basis [3]	fold binding relative to the IgG (HIV02G), on a weight basis (from EC10) [4]	EC50 [5]	fold binding relative to the IgG (HIV02G), on a weight basis (from EC10) [6]
B1	2.3 µg/mL	–	–	–	–	–	–
B2	–	42 fold	7 fold	120 fold	20 fold	0.32 µg/mL	5 fold
